Assay results reported in patent publication US20230272113A1.
Positions count from the first letter of the chain named.

B1: FL-51 (scFv)
scFv: QVTLKESGPTLVKPTETLTLTCTVSGFSLRNVRMGVSWIRQPPGKCLEWLAHISSNDEKSYSTSLRSRLTISTDTSKSQVVLTMTNMDPVDTATYYCARMPGDSNTWRGFFDYWGQGTLVTVSSGGGGSGGGGSGGGGSEIVMTQSPATLSVSPGERATLSCRTSQSVNNNLAWYQQKPGQAPRLLIYGASTRATGIPARFSGSGSGTEFTLTISSLQPEDFATYYCLQHNSYPLTFGCGTKVEIK
B2: FL-58 (scFv)
scFv: B1 scFv with C46A, C239G
B3: FL-45 (scFv)
scFv: QVTLKESGPALVKPTQTLTLTCTFSGFSLSNARMGVSWIRQPPGKCLEWLAHIFSNDEKSYRTSLKSRLTISKDTSKSQVVLTMTNMDPVDTATYYCARIVGYGSGWYAYFDYWGQGTLVTVSSGGGGSGGGGSGGGGSDIQMTQSPSSLSASVGDRVTITCRASQGIRNDLGWYQQKPGKAPKRLIYAASSLQSGVPSRFSGSGSGTEFTLTISSLQPEDFATYYCLQHNSYPLTFGCGTKVEIK
B4: FL-47 (scFv)
scFv: B3 scFv with R62S, N86D, V90E, S105T, A109G, Y110F, T118I, A164T
B5: FL-57 (scFv)
scFv: QVTLKESGPTLVKPTETLTLTCTFSGFSLRYARMGVSWIRQPPGKALEWLAHISSNDEKSFSTALESRLTISTDTSKSQMVLTMTNVDPVDTATYYCARMPGDSNTWRGFFDYWGQGTLVTVSSGGGGSGGGGSGGGGSEIVMTQSPGTLSLSPGERATLSCRTSQTVTNSYIAWYQQRPGQAPRLLIYGTSTRATGIPDRFSGSGSGTDFTLTISRLEPEDFAVYYCQKYGSSPLTFGGGTKLEIK
B6: FL-46 (scFv)
scFv: QVTLKESGPVLVKPTQTLTLTCTFSGFSLSNARMGVSWIRQPPGKCLEWLALIYWNDDKRYSPSLKSRLTITKDTSKNQVVLTMTNMDPVDTATYYCARMVGYGSGWYAYFDYWGQGTLVTVSSGGGGSGGGGSGGGGSDIQMTQSPSSLSASVGDRVTITCRASQGIRNDLGWYQQKPGKAPKRLIYAASSLQSGVPSRFSGSGSGTEFTLTISSLQPEDFATYYCLQHNSYPLTFGCGTKVEIK
B7: FL-49 (scFv)
scFv: QVTLKESGPTLVKPTETLTLTCTVSGFSLNNARMGVSWIRQPPGKCLEWLAHIFSNDEKSYSTSLKNRLTISKDSSKTQVVLTMTNVDPVDTATYYCARIVGYGTGWFGYFDYWGQGTQVTVSSGGGGSGGGGSGGGGSDIQMTQSPSSLSASVGDRVTITCRASQDIRTDLAWYQQKPGKAPKRLIYAASSLQSGVPSRFSGSGSGTEFTLTISSLQPEDFATYYCLQHNRYPLTFGCGTKVDIK
B8: FL-54 (scFv)
scFv: QVQLVESGGGVVQPGRSLRLSCAASGFTFSSYGMHWVRQAPGKCLEWVAVISYDGSNEFYADSVKGRFTISRDNSKNTLYLQMNSLRAEDTAVYYCARGGEITMVRGVIGYYYYGMDVWGQGTTVTVSSGGGGSGGGGSGGGGSEIVMTQSPATLSVSPGERATLSCRASQGVRNNLVWYQQKPGQAPRLLIYGASTRATGIPARFSGSGSGTEFTLTISSLQSEDFATYYCLQHNSYPLTFGCGTKVEIK
B9: FL-48 (scFv)
scFv: QVTLKESGPMLVKPTETLTLTCTFSGFSLRNARMGVSWIRQPPGKCLEWLAHIFWNDEKSYSTSLKSRLTISKDTSKSQVVLTMTNMDPVDTATYYCARIPYYGSGSYNYGMDVWGQGTTVTVSSGGGGSGGGGSGGGGSDIQMTQSPSSLSASVGDRVTITCRASQGIRNDLGWYQQKPGKAPKRLIYAASSLQSGVPSRFSGSGSGTEFTLTISSLQPEDFATYYCLQHNTYPLTFGCGTKVDIK
B10: FL-56 (scFv)
scFv: QVTLKESGPVLVKPTETLTLTCTVSGFSLRNVRMGVSWIRQPPGKALEWLAHIFSNDEKLYTTSLKSRLTISKDTSKSQVVLTMTNMDPEDTATYYCARIVGYGTGWYGYFDYWGQGTQVTVSSGGGGSGGGGSGGGGSDIQMTQSPSSLSASIGDRVTITCRASQDIRDDLGWYQREPGKAPKRLIYATSIRQSGVPSRFSGSGSGTEFTLTISGLQPEDFATYFCLQHHSFPLTFGGGTKVDIK
B11: FL-43 (scFv)
scFv: QVTLKESGPVLVKPTETLTLTCTVSGFSFRNARMGVSWIRQPPGKCLEWLAHIFSNDEKSYSTSLKSRLTISKDTSKSQVVLTLTNMDPVDTATYFCARMPEYSSGWSGAFDIWGQGTMVTVSSGGGGSGGGGSGGGGSDIQMTQSPSSLSASVGDRVTITCRASQGIRNDLVWYQQKPGKAPKRLIYGTSTLQSGVPSRFSGSGSGTEFTLTISSLQPEDFATYYCLQHNSYPLTFGCGTKVEIK
B12: FL-44 (scFv)
scFv: B11 scFv with A164T, G189A, T190A, Y226F, N231Y
B13: FL-52 (scFv)
scFv: B11 scFv with V10T, V24F, F29L, N31Y, G167D, V173A, G189A, T190A, T192S, V243L
B14: FL-53 (scFv)
scFv: QVQLVESGGGVVQPGRSLRLSCAASGFTFSSYGMHWVRQAPGKCLEWVAVISYDGSNEFYADSVKGRFTISRDNSKNTLYLQMNSLRAEDTAVYYCARGGEITMVRGVIGYYYYGMDVWGQGTTVTVSSGGGGSGGGGSGGGGSDIQMTQSPSSLSASVGDRVTITCRTSQSISSYLNWYQQKPGKAPKLLIYAASSLQSGVPSRFSGSGSGTEFTLTISSLQPEDFATYYCLQHNSYPLTFGCGTKVDIK
B15: FL-50 (scFv)
scFv: QVTLKESGPTLVKPTETLTLTCTVSGFSLSNARMGVSWIRQPPGKCLEWLAHIFSNDEKSYSTSLKSRLTISKDTSKSQVVLTMTNMDPVDTATYYCARIPGYGGNFYYHYYGMDVWGQGTTVTVSSGGGGSGGGGSGGGGSDIQMTQSPSSLSASVGDRVTITCRASQGIRNDLAWYQQKPGKAPKRLIYAASTVQSGVPSRFSGSGSGTEFALTISSLQPEDFATYYCLQHNSFPWTFGCGTKVDIK

Molecular target: human FLT3 on transfected CHO cells (human) (UniProt P36888)
Test: FACS, scFv on CHO-human FLT3 cells pre-incubated with FLT3 ligand (competitor)

Binder	median [+ligand]/median [w/o ligand]*100 [%]
B1	> 75
B2	> 75
B3	> 75
B4	> 75
B5	> 75
B6	> 75
B7	> 75
B8	> 75
B9	> 75
B10	> 75
B11	> 75
B12	> 75
B13	> 75
B14	> 75
B15	> 75
